The values that follow come from US20130130273A1 (KOREA BASIC SCIENCE INSTITUTE, published 2013).

This test has as its target TMD-mRFP-RelA (UniProt Q04206 1-551). Description: co-translocation of a three-protein complex (RelA, IkB, p50) after 1 µM PMA, confocal microscopy, HEK293 cells.

TMD-mRFP-RelA, sequence (Q04206 other isoform, or with tags, fused parts or gaps limits assumed): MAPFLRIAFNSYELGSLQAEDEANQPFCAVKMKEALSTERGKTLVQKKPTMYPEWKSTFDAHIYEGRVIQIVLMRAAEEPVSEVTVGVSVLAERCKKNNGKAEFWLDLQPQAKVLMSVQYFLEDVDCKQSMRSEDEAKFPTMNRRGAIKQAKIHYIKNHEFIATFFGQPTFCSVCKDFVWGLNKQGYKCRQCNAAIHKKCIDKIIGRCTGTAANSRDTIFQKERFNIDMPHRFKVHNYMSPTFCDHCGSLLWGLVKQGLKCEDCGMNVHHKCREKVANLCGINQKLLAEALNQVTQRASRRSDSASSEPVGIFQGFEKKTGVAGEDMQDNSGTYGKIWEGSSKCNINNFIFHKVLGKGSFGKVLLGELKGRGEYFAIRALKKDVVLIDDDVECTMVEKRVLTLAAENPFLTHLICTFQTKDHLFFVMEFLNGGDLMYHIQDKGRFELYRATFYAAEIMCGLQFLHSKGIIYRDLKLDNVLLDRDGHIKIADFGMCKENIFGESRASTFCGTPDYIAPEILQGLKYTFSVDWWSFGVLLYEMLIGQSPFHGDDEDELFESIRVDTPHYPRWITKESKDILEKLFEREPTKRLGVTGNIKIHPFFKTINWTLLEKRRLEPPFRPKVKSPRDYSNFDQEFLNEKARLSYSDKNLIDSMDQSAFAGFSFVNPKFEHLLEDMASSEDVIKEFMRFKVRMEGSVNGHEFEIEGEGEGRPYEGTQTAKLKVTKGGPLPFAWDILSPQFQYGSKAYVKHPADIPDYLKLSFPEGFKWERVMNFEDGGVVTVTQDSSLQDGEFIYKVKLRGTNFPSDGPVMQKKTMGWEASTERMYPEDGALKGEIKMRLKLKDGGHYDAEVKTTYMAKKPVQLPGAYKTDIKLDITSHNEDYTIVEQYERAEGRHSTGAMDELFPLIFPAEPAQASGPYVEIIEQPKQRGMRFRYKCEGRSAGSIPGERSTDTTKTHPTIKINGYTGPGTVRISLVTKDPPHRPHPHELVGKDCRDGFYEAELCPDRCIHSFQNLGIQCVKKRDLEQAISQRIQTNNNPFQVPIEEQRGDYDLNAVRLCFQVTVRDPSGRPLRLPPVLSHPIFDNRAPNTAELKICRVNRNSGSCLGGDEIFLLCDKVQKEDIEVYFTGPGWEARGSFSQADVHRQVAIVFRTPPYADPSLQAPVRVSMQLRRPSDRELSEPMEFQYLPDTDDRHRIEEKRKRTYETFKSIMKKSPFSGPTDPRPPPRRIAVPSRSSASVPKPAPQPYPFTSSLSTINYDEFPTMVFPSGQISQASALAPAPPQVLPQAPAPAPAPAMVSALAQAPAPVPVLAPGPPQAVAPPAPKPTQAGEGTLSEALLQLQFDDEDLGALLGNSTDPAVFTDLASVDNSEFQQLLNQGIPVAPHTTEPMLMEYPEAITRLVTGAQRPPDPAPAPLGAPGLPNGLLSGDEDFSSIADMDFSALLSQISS

B1: HcR-p50 (other)
chain: MVSGLLKESMRIKMYMEGTVNGHYFKCEGEGDGNPFAGTQSMRIHVTEGAPLPFAFDILAPCCEYGSRTFVHHTAEIPDFFKQSFPEGFTWERTTTYEDGGILTAHQDTSLEGNCLIYKVKVHGTNFPADGPVMKNKSGGWEPSTEVVYPENGVLCGRNVMALKVGDRHLICHHYTSYRSKKAVRALTMPGFHFTDIRLQMLRKKKDEYFELYEASVARYSDLPEKANMAEDDPYLGRPEQMFHLDPSLTHTIFNPEVFQPQMALPTDGPYLQILEQPKQRGFRFRYVCEGPSHGGLPGASSEKNKKSYPQVKICNYVGPAKVIVQLVTNGKNIHLHAHSLVGKHCEDGICTVTAGPKDMVVGFANLGILHVTKKKVFETLEARMTEACIRGYNPGLLVHPDLAYLQAEGGGDRQLGDREKELIRQAALQQTKEMDLSVVRLMFTAFLPDSTGSFTRRLEPVVSDAIYDSKAPNASNLKIVRMDRTAGCVTGGEEIYLLCDKVQKDDIQIRFYEEEENGGVWEGFGDFSPTDVHRQFAIVFKTPKYKDINITKPASVFVQLRRKSDLETSEPKPFLYYPEIKDKEEVQRKRQKLMPNFSDSFGGGSGAGAGGGGMFGSGGGGGGTGSTGPGYSFPHYGFPTYGGITFHPGTTKSNAGMKHG
notes: also called second construct 2
In the case of B1, the binding result is “binds”.
